In the supplement of paper PMC12764529:
± gives the half width of the 95% confidence interval.

Assays:
[1] = folding stability dG unfold from chymotrypsin proteolysis; higher = more stable
Summary of the method: (§1)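 Digests were run with trypsin and chymotrypsin at 11 concentrations in threefold dilutions, plus a no-protease condition, on designed mini-proteins in a PA-tagged cDNA display construct. The mini-proteins were under 80 residues, had no cysteine, and were kept only when AlphaFold2 dimer inter-PAE was above 15. After sequencing, Bayesian fitting of the counts gave K50, from which unfolding free energy was derived against a sequence-predicted unfolded-state K50 and a shared folded-state K50, per protease or combined.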

[2] = folding stability dG unfold (combined trypsin and chymotrypsin); higher = more stable
Summary of the method: as §1

[3] = folding stability dG unfold from trypsin proteolysis; higher = more stable
Summary of the method: as §1

Row | Sequence | folding stability dG unfold [1] | folding stability dG unfold [2] | folding stability dG unfold [3]
1 | SAGGSAGGSAGGMTQEVTLEPLPDGTVKLLSVEAPESTVTVPVKLPGGGEEVRTLPPEALSAGGSAGGSAGG [r7_829_JUSTAS] | -0.255 ± 0.15 kcal/mol | -0.131 ± 0.16 kcal/mol | -0.0201 ± 0.045 kcal/mol
2 | SAGGSAGGSAGGMTVERREVFPLGESLVITETREVLDPSSDVPVTVETRVEVLPPEVPPSAGGSAGGSAGGS [r10_599_JUSTAS] | 0.25 ± 0.12 kcal/mol | 0.033 ± 0.18 kcal/mol | -1.32 ± 0.74 kcal/mol
3 | SAGGSAGGSAGGMTVLETEVTTLPNGVVKTTTLYKDPSTGALHTVTEEVYVPLGETALLSAGGSAGGSAGGS [r10_72_JUSTAS] | 0.15 ± 0.15 kcal/mol | 0.523 ± 0.11 kcal/mol | 0.716 ± 0.022 kcal/mol
4 | SAGGSAGGSAGGMTYVTVTLKEGDTEVTLTFPLEKLPEVVPEPGIEILEVETSPLDPELLSAGGSAGGSAGG [r17_204_JUSTAS] | 0.737 ± 0.14 kcal/mol | 1.05 ± 0.12 kcal/mol | 1.34 ± 0.081 kcal/mol
5 | SAGGSAGGSAGGMVETGTPSSGSSSPSYVLTTTTLTLLDGTFVPTTTTTTFSDPAEAAAASAGGSAGGSAGG [r7_896_JUSTAS] | 0.411 ± 0.077 kcal/mol | 1.14 ± 0.086 kcal/mol | 1.52 ± 0.082 kcal/mol
6 | SAGGSAGGSAGGMVIERPLPNGEPLLVELGRPASAPARVTVPNPGRPLGTITSLEELEERSAGGSAGGSAGG [r7_72_TrMRF] | 0.565 ± 0.03 kcal/mol | 0.332 ± 0.13 kcal/mol | -0.207 ± 0.11 kcal/mol
7 | SAGGSAGGSAGGMVTATVTEYQPGEGLLTVKPPDGSTITIAVPPSVSYEELKNTTIDLSLSAGGSAGGSAGG [r7_296_JUSTAS] | 0.021 ± 0.072 kcal/mol | 0.714 ± 0.066 kcal/mol | 1.09 ± 0.036 kcal/mol
8 | SAGGSAGGSAGGMVTTKTVVTFDPSGYITTTETIKVVGTDELLTKTSVTPVEPVPPLLSSAGGSAGGSAGGS [r10_928_JUSTAS] | 1.18 ± 0.026 kcal/mol | 0.828 ± 0.1 kcal/mol | -0.179 ± 0.2 kcal/mol
9 | SAGGSAGGSAGGMVTVETAPAPEGTERVIRVTFLEVNPEDGTIVRPATLTFVVPPGDPLSAGGSAGGSAGGS [r10_86_TrMRF] | 0.876 ± 0.083 kcal/mol | 0.686 ± 0.062 kcal/mol | 0.397 ± 0.066 kcal/mol
10 | SAGGSAGGSAGGMVVEVVELPDGQLVVRAGPVGYAVVFNGEEVTLFELPPDAEVELLPFSAGGSAGGSAGGS [r10_637_TrMRF] | 1.55 ± 0.089 kcal/mol | 1.36 ± 0.098 kcal/mol | 1.1 ± 0.032 kcal/mol
11 | SAGGSAGGSAGGMVVLKTPERFVVVESVEVYVPVRDPDGTPVRWSPVRTEVRVTVIPPLASAGGSAGGSAGG [r7_3_JUSTAS] | 2.13 ± 0.057 kcal/mol | 1.86 ± 0.058 kcal/mol | 1.34 ± 0.038 kcal/mol
12 | SAGGSAGGSAGGMVYFPESLKEEVIEELKKKGYKIKSIEKIEGGYIRITTPKNPIEIKLLSAGGSAGGSAGG [r17_379_JUSTAS] | 0.786 ± 0.25 kcal/mol | 0.8 ± 0.17 kcal/mol | 0.443 ± 0.084 kcal/mol
13 | SAGGSAGGSAGGMWYIRITYDNGREIWIPIGDPITIKHKDGKPVQIKEVEVYPLPPGQISAGGSAGGSAGGS [r10_20_TrROS] | 2.72 ± 0.032 kcal/mol | 2.58 ± 0.11 kcal/mol | 2.04 ± 0.064 kcal/mol
14 | SAGGSAGGSAGGMYYAIITNKNGKKKIIKFKSLEEMEEAAKKNNIKIEIIPKEELEKLLSAGGSAGGSAGGS [r10_66_TrROS_Hall] | 3.64 ± 0.043 kcal/mol | 3.65 ± 0.069 kcal/mol | 3.56 ± 0.11 kcal/mol
15 | SAGGSAGGSAGGNPPDWKPVGEEEFPIPNPNGMQIKISVWTIRAPDDGKSASFIDIEMYPSAGGSAGGSAGG [r7_546_TrROS] | 1.87 ± 0.072 kcal/mol | 1.58 ± 0.32 kcal/mol | 1.19 ± 0.07 kcal/mol
16 | SAGGSAGGSAGGNWVTIWIPFKMTHYRPDPDGKMYPHKHEMPRPITIPPGQATEDALDKISAGGSAGGSAGG [r7_777_TrROS] | 0.762 ± 0.14 kcal/mol | 0.595 ± 0.11 kcal/mol | 0.165 ± 0.12 kcal/mol
17 | SAGGSAGGSAGGNYVVRIEHNGQPIMEQPFPGSLEDAKDYVKEIAQFFPPDKVKIEVYKFSAGGSAGGSAGG [r7_81_TrROS] | 0.458 ± 0.19 kcal/mol | 0.292 ± 0.095 kcal/mol | -0.0528 ± 0.057 kcal/mol
18 | SAGGSAGGSAGGPDFKIEPVEKKGNYELYKAYIPETGEEFFLVYYPNPKEVKIYPSDYLSAGGSAGGSAGGS [r10_172_TrMRF] | 1.52 ± 0.034 kcal/mol | 1.29 ± 0.049 kcal/mol | 0.754 ± 0.038 kcal/mol
19 | SAGGSAGGSAGGPEVEVFYERGPDGPLKVVVVVRNPDTPEVTVLVADLEPEKALEFLEALSAGGSAGGSAGG [r7_105_TrMRF] | 1.86 ± 0.084 kcal/mol | 1.89 ± 0.18 kcal/mol | 2 ± 0.14 kcal/mol
20 | SAGGSAGGSAGGPEVTITLPPPEKVKVEIVEIEVEGGKVRIRVRNENGEELTFTVPLEDLSAGGSAGGSAGG [r7_829_TrROS_Hall] | 1.59 ± 0.35 kcal/mol | 1.51 ± 0.26 kcal/mol | 0.667 ± 0.18 kcal/mol
21 | SAGGSAGGSAGGPFPFKIDSVEWETTDNKRYYEIKLEFPNGNPVTIHMPPNNPDDVKDAISAGGSAGGSAGG [r7_365_TrROS] | -0.00838 ± 0.25 kcal/mol | 0.144 ± 0.2 kcal/mol | 0.232 ± 0.071 kcal/mol

Row | Sequence | folding stability dG unfold [1] | folding stability dG unfold [2] | folding stability dG unfold [3]
22 | SAGGSAGGSAGGPGWRTIEFWIPVDDFLDEIKLPPGITPIRIIKPNPNGYVRIMIIYPYSAGGSAGGSAGGS [r10_352_TrROS] | 3.05 ± 0.059 kcal/mol | 2.89 ± 0.14 kcal/mol | 2.53 ± 0.1 kcal/mol
23 | SAGGSAGGSAGGPITSIDTSGPVITVTATTPGGSVTMDVPPDLTLEEVEALLKANPELLNSAGGSAGGSAGG [r7_373_JUSTAS] | -0.265 ± 0.12 kcal/mol | 0.788 ± 0.087 kcal/mol | 1.41 ± 0.072 kcal/mol
24 | SAGGSAGGSAGGPKGYFRIRIEIPNGQKREIWFPPDDAEEWVKSLGIPEENVKITKIEPYSAGGSAGGSAGG [r7_211_TrROS] | 0.874 ± 0.27 kcal/mol | 0.868 ± 0.18 kcal/mol | 0.506 ± 0.15 kcal/mol
25 | SAGGSAGGSAGGPKIEVNEDGTVTITLEVDGKLVTKTVKVELEAPPVETVEFVKEGEEVSAGGSAGGSAGGS [r10_240_TrROS_Hall] | 1.21 ± 0.046 kcal/mol | 1.02 ± 0.077 kcal/mol | 0.822 ± 0.043 kcal/mol
26 | SAGGSAGGSAGGPKVEVTVKGKPATVEWFPEEGKARVTVPDGRVYVLDLNGDKLEIKPLSAGGSAGGSAGGS [r10_724_TrMRF] | 0.588 ± 0.13 kcal/mol | 0.512 ± 0.1 kcal/mol | 0.258 ± 0.041 kcal/mol
27 | SAGGSAGGSAGGPKVIEITNKDGSTFRLVEVDGELYLYNEKTGKVVKLPPGAKITIKKPSAGGSAGGSAGGS [r10_637_TrROS_Hall] | 2.65 ± 0.031 kcal/mol | 2.34 ± 0.059 kcal/mol | 1.39 ± 0.033 kcal/mol
28 | SAGGSAGGSAGGPLKEAVEAAVASGAPEAEYLLVTPEGELRVTVKVYPEEGKVEVEVSPLSAGGSAGGSAGG [r17_475_TrMRF] | 0.0794 ± 0.063 kcal/mol | 0.555 ± 0.037 kcal/mol | 0.903 ± 0.018 kcal/mol
29 | SAGGSAGGSAGGPLKLKVKLKLEFEVKDENGKTSKVELEVELEVELPEIVLDKNGKLLLSAGGSAGGSAGGS [r10_168_TrROS_Hall] | 3.39 ± 0.26 kcal/mol | 2.95 ± 0.32 kcal/mol | 2.42 ± 0.091 kcal/mol
30 | SAGGSAGGSAGGPMEPIELTFMIPHPNGHPIVAKTEIWRMKNGFFIKPEIYNPDGNPIPSAGGSAGGSAGGS [r10_1056_TrROS] | -0.377 ± 0.3 kcal/mol | -0.207 ± 0.18 kcal/mol | -0.153 ± 0.25 kcal/mol
31 | SAGGSAGGSAGGPNIKIKDVHEHPPEDGNPIVMFEIKAKDDDGEKVYIIITPDKIHIMPISAGGSAGGSAGG [r7_960_TrROS] | 1.15 ± 0.21 kcal/mol | 0.927 ± 0.21 kcal/mol | 1 ± 0.07 kcal/mol
32 | SAGGSAGGSAGGPNPDMKFEIVTIKVPPDEVPKSEPIEDPDGHNFFLHFDGNTYTIWRMDSAGGSAGGSAGG [r7_97_TrROS] | 1.39 ± 0.42 kcal/mol | 0.933 ± 0.23 kcal/mol | 0.987 ± 0.086 kcal/mol
33 | SAGGSAGGSAGGPPGAVERGYLVVRFRVYRPEPAEPVGELTVYVRVPPPEPEEDGSFRFHSAGGSAGGSAGG [r7_959_TrMRF] | 2.39 ± 0.068 kcal/mol | 2.24 ± 0.086 kcal/mol | 1.98 ± 0.025 kcal/mol
34 | SAGGSAGGSAGGPPLKVTEVETHKHPNGHRYVTMTLRPPNGGPVTIMFDPNNGKIQIMISAGGSAGGSAGGS [r10_1218_TrROS] | 3.35 ± 0.19 kcal/mol | 2.94 ± 0.24 kcal/mol | 2.19 ± 0.13 kcal/mol
35 | SAGGSAGGSAGGPPVLAESTFSFPDGVTVRLAFLPDGKAIAELTPPDGSKIEVEFDVDASAGGSAGGSAGGS [r10_1184_TrMRF] | 0.203 ± 0.14 kcal/mol | 0.189 ± 0.23 kcal/mol | -0.214 ± 0.11 kcal/mol
36 | SAGGSAGGSAGGPPYEVNIYIKFRPPDGKPPTFPIDVNVNDPEDAKDELEDNFPNMEIVSAGGSAGGSAGGS [r10_1248_TrROS] | 0.996 ± 0.15 kcal/mol | 0.919 ± 0.23 kcal/mol | 0.592 ± 0.051 kcal/mol
37 | SAGGSAGGSAGGPSPSTPVTVTVTFPETGETVTLEVTDLEELRERFPDRPVEITVSPGGSAGGSAGGSAGGS [r10_1004_JUSTAS] | 2.11 ± 0.041 kcal/mol | 2.42 ± 0.06 kcal/mol | 2.5 ± 0.064 kcal/mol
38 | SAGGSAGGSAGGPTIVLKVSPEELKALEKAGVEIEKIEKNEDGELYITLTPEALKKAGFESAGGSAGGSAGG [r7_587_TrROS_Hall] | 2.91 ± 0.057 kcal/mol | 2.97 ± 0.11 kcal/mol | 2.85 ± 0.13 kcal/mol
39 | SAGGSAGGSAGGPVRLLVLEVPVENVEEVVRRLEALGSVRPVRVERLPGDRYRVLVVSPLSAGGSAGGSAGG [r7_589_TrMRF] | 1.54 ± 0.05 kcal/mol | 1.46 ± 0.056 kcal/mol | 1.3 ± 0.046 kcal/mol
40 | SAGGSAGGSAGGPWITIPLPPGEEYKIENKGNGKEQEINPNDGSIVIPNIPPDNAKVERESAGGSAGGSAGG [r7_200_TrROS] | -0.177 ± 0.24 kcal/mol | 0.232 ± 0.14 kcal/mol | 0.179 ± 0.041 kcal/mol
41 | SAGGSAGGSAGGPWYVRIEYTPPNGNKETFIIPSPEEIDEWAEPFGVPVKIEPIPPGDPISAGGSAGGSAGG [r7_456_TrROS] | 0.604 ± 0.1 kcal/mol | 0.736 ± 0.091 kcal/mol | 0.801 ± 0.02 kcal/mol
42 | SAGGSAGGSAGGPYEKAVEAAKALGSEDKPITIKLPNGTTVTLKPSELPSLPYEDPIVLLSAGGSAGGSAGG [r7_863_JUSTAS] | 0.259 ± 0.18 kcal/mol | 0.353 ± 0.17 kcal/mol | 0.367 ± 0.093 kcal/mol
